Assay results taken from article PMC2928128.
pKd: −log10 of the molar value.

What was measured:
Experiment in all cases: SPR
[1] = target: GST-CDH23 + exon68ΔITEL (residues 847-1110)
[2] = target: GST-CDH23Δexon68ΔITEL (residues 847-1075)
[3] = target: GST-CDH23 + exon68 (cytoplasmic region of cadherin-23 including the exon68-encoded sequence, residues 847-1114)
[4] = target: GST-CDH23Δexon68 (cytoplasmic region of cadherin-23 lacking the exon68-encoded sequence, residues 847-1079)

Measured: pKd

harmonin-a PDZ3 domain (residues 434-545) (domain or fragment), sequence (Q9ES64 434-545): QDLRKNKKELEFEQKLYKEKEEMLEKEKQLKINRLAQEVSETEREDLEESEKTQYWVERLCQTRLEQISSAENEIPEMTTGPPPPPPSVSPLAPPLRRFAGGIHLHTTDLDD

harmonin-a PDZ3 domain (residues 434-545) (domain or fragment)
< 5.30: all assays above
